Data reported in patent US7307143 (MAX DELBR CK INSTITUT FUR MOLEKULARE HEDIZIN, dated 2007).

Molecular target: T1, Adenomatosis Polyposis Coli (APC) (UniProt P25054 2-2843, limits assumed)
T1 construct: Stands for 'APC' where the sentence names no fragment; also called tumor suppressor protein APC
Test: yeast 2-hybrid, partial pieces of conductin

T1 sequence (P25054 2-2843 limits assumed): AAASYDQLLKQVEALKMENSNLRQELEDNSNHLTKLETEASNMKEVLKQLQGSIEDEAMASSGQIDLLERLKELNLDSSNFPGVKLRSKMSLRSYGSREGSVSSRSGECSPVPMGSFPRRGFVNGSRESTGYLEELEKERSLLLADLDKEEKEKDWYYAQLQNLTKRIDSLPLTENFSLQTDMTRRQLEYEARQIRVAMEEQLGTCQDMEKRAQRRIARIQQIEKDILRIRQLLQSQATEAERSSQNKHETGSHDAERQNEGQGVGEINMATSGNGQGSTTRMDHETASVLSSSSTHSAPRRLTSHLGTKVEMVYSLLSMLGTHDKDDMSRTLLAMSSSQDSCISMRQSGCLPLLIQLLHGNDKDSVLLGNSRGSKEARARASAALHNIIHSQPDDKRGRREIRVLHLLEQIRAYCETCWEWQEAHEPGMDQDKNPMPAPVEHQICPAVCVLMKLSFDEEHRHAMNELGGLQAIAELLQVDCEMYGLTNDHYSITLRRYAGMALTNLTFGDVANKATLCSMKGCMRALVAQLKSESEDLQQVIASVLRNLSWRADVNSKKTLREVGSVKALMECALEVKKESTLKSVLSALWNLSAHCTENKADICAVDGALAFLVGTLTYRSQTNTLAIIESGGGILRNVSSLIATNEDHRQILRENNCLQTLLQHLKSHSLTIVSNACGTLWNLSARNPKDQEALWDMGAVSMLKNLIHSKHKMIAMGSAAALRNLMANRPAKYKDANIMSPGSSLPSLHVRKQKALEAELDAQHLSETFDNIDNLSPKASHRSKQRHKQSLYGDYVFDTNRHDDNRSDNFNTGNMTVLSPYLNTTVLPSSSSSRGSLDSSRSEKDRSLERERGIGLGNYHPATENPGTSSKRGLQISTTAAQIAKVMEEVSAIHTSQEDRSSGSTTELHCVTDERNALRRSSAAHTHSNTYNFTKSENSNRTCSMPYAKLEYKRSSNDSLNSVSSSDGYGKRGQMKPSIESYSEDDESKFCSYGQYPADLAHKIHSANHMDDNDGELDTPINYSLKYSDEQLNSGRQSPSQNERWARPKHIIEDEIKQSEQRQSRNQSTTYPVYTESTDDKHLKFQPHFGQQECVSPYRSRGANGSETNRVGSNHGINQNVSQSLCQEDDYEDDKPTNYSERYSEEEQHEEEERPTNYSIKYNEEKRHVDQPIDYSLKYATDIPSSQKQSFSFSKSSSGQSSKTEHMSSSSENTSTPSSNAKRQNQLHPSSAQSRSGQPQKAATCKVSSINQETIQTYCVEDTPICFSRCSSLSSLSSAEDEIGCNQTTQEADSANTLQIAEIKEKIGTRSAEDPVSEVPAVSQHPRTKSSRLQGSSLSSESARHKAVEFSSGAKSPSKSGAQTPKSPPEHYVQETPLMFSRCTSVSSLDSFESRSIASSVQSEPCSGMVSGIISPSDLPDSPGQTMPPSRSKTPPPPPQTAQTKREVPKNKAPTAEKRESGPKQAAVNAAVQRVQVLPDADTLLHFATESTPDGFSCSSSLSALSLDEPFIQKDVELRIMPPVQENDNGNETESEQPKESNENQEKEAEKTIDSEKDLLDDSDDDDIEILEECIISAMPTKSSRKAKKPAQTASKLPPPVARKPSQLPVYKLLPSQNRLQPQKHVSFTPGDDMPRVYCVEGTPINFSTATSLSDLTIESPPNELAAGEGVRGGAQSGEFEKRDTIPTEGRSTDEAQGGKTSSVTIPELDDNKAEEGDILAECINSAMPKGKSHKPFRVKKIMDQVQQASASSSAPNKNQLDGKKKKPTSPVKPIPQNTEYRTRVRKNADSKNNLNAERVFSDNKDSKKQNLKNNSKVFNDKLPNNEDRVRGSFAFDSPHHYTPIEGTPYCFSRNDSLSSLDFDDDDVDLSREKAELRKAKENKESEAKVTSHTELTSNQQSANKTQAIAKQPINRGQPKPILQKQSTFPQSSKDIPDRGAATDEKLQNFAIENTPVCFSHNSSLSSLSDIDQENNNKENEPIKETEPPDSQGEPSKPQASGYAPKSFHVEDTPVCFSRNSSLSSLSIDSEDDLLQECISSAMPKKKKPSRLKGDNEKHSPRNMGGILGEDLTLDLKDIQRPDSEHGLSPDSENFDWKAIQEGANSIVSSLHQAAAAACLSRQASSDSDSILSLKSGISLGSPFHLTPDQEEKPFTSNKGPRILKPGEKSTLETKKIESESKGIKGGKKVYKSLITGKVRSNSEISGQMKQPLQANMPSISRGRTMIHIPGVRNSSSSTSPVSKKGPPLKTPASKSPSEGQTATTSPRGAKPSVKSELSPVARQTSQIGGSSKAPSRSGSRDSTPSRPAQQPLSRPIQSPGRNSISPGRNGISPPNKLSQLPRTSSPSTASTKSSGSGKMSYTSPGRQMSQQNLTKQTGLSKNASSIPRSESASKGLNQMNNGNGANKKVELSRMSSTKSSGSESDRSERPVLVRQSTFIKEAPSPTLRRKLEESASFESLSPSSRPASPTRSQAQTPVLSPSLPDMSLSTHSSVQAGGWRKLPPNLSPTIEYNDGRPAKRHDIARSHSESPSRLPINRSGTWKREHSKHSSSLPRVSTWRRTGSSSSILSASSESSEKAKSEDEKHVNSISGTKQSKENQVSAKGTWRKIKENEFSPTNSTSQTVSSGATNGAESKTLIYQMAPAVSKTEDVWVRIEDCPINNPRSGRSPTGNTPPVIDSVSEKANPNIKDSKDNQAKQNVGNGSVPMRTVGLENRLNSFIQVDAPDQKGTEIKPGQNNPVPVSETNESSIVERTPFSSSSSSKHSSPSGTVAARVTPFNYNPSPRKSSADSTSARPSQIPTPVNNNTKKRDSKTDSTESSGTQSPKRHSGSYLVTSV

Binder	binding result
conductin β-catenine binding domain (amino acids 397-465) (other, also called b-BD) QIREDEEKEGSEQALSSRDGAPVQHPLALLPSGSYEEDPQTILDDHLSRVLKTPGCQSPGVGRYSPRSR	no binding
conductin GSK 3b-binding domain (amino acids 343-396) (other, also called GSK BD) ANGQVSLPHFPRTHRLPKEMTPVEPAAFAAELISRLEKLKLELESRHSLEERLQ	no binding
conductin disheveled homology region (amino acids 783-833) (other) LTLGHFKEQLSKKGNYRYYFKKASDEFACGAVFEEIWDDETVLPMYEGRIL	no binding
